This passage reports IC50 results from publication PMC3266974 (Journal of Medicinal Chemistry, 2012).

In this assay the target is T1, bovine pancreas CPA (Bos taurus, UniProt P00730).
T1 sequence (P00730 111-419): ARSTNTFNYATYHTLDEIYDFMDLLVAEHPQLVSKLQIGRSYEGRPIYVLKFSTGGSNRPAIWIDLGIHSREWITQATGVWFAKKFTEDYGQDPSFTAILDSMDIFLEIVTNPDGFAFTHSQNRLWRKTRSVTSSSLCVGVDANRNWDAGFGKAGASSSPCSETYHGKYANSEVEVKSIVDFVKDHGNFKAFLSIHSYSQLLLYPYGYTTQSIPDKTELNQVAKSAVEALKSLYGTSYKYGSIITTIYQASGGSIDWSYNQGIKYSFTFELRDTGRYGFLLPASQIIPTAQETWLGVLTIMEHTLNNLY
The assay is described as follows: Inhibition of CPA, colorimetric substrate N-. The class given is biochemical. As to conditions: tested in duplicate, na = not active at 30 μM.

Usually IC50 stands for the concentration that inhibits the measured activity by half. In turn, “Peptide 6: linear version of namalide (IFKF; not fully specified; Linear (uncyclized) namalide)” gave an IC50 of 4.5 ± 0.9 µM.
